Assay results taken from patent US20260049134A1 (UNIVERSITY OF FLORIDA RESEARCH FOUNDATION, published 2026).
Numbering of substitutions follows the chain as printed. Names and notes keep the numbering of the source. Each block holds one binder with its values, some of them ahead of it.

Columns and labels:
PTPRG on U266 cells = molecular target: T1, PTPRG on U266 cells (human, UniProt P23470); assay: flow cytometry, IgG1 on U266 cells
T1 construct: endogenous on U266 multiple myeloma cells; also called HW-1 target on U266
Experimental: Staining protocol. Cells were harvested (5×10⁴ cells per sample), washed once with phosphate-buffered saline (PBS) at RT, and a second time with ice-cold FACS buffer (PBS, 0.5% BSA, 2 mM EDTA, 0.1% NaN₃). Cells were stained in 50 μL of primary antibody for 30 min on ice, washed twice with 100 μL FACS buffer, stained with 50 μL of diluted secondary antibody, washed two more times in FACS, and then resuspended in 50 μL FACS buffer. Samples were acquired on an Accuri C6 Plus or a BD FACSCanto II flow cytometer (both from BD Biosciences). Data were analyzed using FlowJo version 10 software. Primary antibodies: Fab (10 μg/mL), IgG1 (0.1 to 50 μg/mL), or 25 μL polyclonal Fabs from periplasmic extracts. Polyclonal Fabs were produced by diluting bacterial stocks by a factor of 100 in autoinduction media and incubating overnight to induce expression as previously described. […] Viability stains: DAPI (Cell Signaling Technology) or SYTOX AADvanced Dead Cell Stain (Thermo Fisher Scientific). Labeling: The panel of chimeric rabbit/human IgG1s was labeled using the Alexa Fluor 647 Labeling Kit (Thermo Fisher Scientific, #A20173) to facilitate single-step staining. Competition: Unlabeled IgG1s were added at saturating concentrations of 60 μg/mL to block the target receptors, incubating on ice for 30 min, followed by the addition of an equal volume of the Alexa Fluor 647 labeled antibody at 2 μg/mL, and the mixture was incubated on ice for another 30 min.

[1] = molecular target: T2, PTPRG, endogenous in H929 multiple myeloma cells (human, UniProt P23470 20-1445); assay: flow cytometry, H929 + vehicle; None 513
T2 construct: Native protein on H929 cells (flow cytometry, siRNA knockdown) and in H929 lysates (IP/MS); also called phosphatase receptor type γ

SLAMF7 = molecular target: T3, SLAMF7; assay: ELISA on coated SLAMF7-StrepTag
T3 construct: coated protein in the ELISA; also called SLAMF7-StrepTag
T3 chain: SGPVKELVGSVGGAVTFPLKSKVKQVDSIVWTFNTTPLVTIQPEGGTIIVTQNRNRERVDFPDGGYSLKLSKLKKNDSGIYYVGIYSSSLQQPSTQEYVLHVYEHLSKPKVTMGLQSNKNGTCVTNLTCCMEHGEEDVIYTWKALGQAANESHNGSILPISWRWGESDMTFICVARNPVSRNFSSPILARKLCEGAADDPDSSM
Experimental: Recombinant purified ECDs (50-150 ng) of each putative target protein were coated, incubated with 150 ng of the indicated primary antibody, and binding was detected using a peroxidase-conjugated anti-human Fab secondary antibody. Heatmap represents averages of technical triplicates. (8B) Target validation via siRNA knockdown. H929 cells were transfected with siRNA pools targeting the putative antibody targets ICAM1, CADM1, and PTPRG. Cells were then subjected to cognate IgG binding analysis via flow cytometry. (NT, non-targeting siRNA).
ELISA ELISA was conducted as described previously. Briefly, 50-150 ng of antigen was coated overnight in half-area 96-well plates at 4° C., blocked with 3% BSA at 37° C. for 1 h, and 150 ng of chimeric rabbit/human IgG1 was added, incubating for 2 h at 37° C. […] After incubating at 37° C. for 15 min-1 h (depending on intensity of controls), data were acquired using a SpectraMax M5 plate reader (Molecular Devices).

[2] = molecular target: T2, PTPRG, endogenous in H929 multiple …; assay: flow cytometry, H929 + NT Green siRNA; None 1.35
[3] = molecular target: T4, GARS, endogenous in H929 multiple myeloma cells (human, UniProt P41250 37-739, limits assumed); assay: flow cytometry, H929 + PTPRG siRNA; None 2.13; surface target GARS putative
T4 construct: Native protein pulled down from H929 lysates; also called Glycyl-tRNA synthetase; GlyRS
T4 sequence: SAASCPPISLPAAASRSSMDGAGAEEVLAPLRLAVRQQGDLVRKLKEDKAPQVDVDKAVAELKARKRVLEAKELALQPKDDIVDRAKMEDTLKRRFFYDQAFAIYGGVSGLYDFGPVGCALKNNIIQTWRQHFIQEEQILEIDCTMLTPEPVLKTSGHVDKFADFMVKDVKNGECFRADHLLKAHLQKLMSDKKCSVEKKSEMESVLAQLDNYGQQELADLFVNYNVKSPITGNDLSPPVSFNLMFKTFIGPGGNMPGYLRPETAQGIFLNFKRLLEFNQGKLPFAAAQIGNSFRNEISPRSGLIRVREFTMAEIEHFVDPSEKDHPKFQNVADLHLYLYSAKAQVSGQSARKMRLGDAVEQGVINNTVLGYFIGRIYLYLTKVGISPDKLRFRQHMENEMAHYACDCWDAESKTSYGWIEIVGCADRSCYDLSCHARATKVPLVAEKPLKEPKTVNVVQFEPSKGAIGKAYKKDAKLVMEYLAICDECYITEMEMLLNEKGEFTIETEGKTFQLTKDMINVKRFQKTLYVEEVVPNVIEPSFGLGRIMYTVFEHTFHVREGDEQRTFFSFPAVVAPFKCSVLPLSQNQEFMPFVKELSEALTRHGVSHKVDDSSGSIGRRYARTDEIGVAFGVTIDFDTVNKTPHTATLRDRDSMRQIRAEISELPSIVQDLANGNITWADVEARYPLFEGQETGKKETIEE

[4] = molecular target: T4, GARS, endogenous in H929 multiple …; assay: flow cytometry, H929 + PTPRG siRNA; None 490; surface target GARS putative
[5] = molecular target: T4, GARS, endogenous in H929 multiple …; assay: flow cytometry, H929 + GARS siRNA (siRNA against the putative target); None 0.2
[6] = molecular target: T4, GARS, endogenous in H929 multiple …; assay: flow cytometry, H929 + CDH18 siRNA; None 0.19; surface target GARS putative
[7] = molecular target: T4, GARS, endogenous in H929 multiple …; assay: flow cytometry, H929 + NT Green siRNA; None 1.35; surface target GARS putative

T2 sequence (P23470 20-1445 limits assumed): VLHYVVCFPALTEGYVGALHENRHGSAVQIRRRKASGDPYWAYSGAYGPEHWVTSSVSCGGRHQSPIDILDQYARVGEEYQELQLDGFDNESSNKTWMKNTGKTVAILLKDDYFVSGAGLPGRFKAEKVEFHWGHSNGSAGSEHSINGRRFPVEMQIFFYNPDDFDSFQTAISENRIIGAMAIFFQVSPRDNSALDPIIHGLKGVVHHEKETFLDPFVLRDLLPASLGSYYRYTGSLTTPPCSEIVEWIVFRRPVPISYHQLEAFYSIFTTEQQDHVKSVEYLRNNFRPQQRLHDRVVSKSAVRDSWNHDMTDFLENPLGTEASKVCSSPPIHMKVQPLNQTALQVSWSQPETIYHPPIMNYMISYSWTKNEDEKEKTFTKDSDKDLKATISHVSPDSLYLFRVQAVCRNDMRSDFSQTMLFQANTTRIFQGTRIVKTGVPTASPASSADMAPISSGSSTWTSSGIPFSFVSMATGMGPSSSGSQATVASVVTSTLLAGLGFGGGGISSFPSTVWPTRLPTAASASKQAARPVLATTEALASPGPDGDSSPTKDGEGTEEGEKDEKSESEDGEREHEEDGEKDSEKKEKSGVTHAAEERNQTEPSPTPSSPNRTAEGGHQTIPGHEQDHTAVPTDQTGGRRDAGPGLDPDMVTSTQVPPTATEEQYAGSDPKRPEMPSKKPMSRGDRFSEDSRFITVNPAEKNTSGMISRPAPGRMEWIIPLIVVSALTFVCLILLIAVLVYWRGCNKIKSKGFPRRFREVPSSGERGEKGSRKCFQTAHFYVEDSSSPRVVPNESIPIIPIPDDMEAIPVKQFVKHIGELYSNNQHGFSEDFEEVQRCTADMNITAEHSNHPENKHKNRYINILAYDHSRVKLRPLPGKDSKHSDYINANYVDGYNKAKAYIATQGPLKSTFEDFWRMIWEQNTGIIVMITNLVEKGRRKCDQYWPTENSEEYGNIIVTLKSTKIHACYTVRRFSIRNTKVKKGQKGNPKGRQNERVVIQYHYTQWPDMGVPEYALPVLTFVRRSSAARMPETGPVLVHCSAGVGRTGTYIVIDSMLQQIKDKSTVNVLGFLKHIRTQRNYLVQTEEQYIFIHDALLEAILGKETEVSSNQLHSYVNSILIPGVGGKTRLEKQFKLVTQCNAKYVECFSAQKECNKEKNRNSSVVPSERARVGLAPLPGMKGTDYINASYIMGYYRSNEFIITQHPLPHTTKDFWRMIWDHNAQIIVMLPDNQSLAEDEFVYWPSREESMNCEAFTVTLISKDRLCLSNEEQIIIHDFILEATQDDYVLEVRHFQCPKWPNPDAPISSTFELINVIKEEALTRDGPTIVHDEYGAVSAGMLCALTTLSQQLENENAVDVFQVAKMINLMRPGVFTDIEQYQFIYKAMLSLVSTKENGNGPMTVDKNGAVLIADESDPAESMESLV
T1 sequence (P23470 20-1445 limits assumed): as above

B2: HW-1 chimeric rabbit-human IgG1 LA/LA/PG (antibody, V domains shown)
VH: QSLEESGGGLFKPTDTLTLTCTASGFSLGSSYAISWVRQAPGKELEWIGTIDSGRAYYARWAKSRSTITRNTNENTVTLKMTSLTAADTATYFCARDLIPTYSQDIWGPGTLVTISS
VL: SFVLTQPASVQVNLGQTVSLTCTADTLSRRYASWYQQKPGQAPVLLIYRDTSRPSGVPDRFSGSSSGNTATLTISGAQAGDEADYYCATSDGSGNSYQYVFGGGTQLTVTS
notes: Fc-silenced (L234A/L235A/P329G) IgG1, lambda; Alexa Fluor 647-labeled in single-step flow cytometry; Prototype of cluster C-1
antibody-bound positive cells (%) (PTPRG on U266 cells): 84.4%
mAb binding (MFI) [1]: 15000
binding result (SLAMF7): no binding (tested: 150 ng IgG1 per well)
Cells stained (%) [2]: 99.4%

B5: HW-17 chimeric rabbit-human IgG1 LA/LA/PG (antibody, V domains shown)
VH: QSLGESRGRLVTPDETLTLTCTVSGIDLSSNAMSWVRQAPGEGLEWIGTINTGGRAYYASWAKGRFTISRTSTTVDLKMTSLTTEDTATYFCARERYSDGRAYDIWGPGTLVTISS
VL: B2 VL with R49T, T51S, S52N, V57I, S90D, N95S, S96I, S111G
notes: Fc-silenced (L234A/L235A/P329G) IgG1, lambda; Alexa Fluor 647-labeled in single-step flow cytometry; Cluster C-1
antibody-bound positive cells (%) (PTPRG on U266 cells): 85.2%
mAb binding (MFI) [1]: 15700
binding result (SLAMF7): no binding (tested: 150 ng IgG1 per well)
Cells stained (%) [2]: 99%

B6: HW-101 chimeric rabbit-human IgG1 LA/LA/PG (antibody, V domains shown)
VH: QEQLVESGGRLVTPGTPLTLTCKASGFSLGKYDMSWVRQAPGKGLEWIGTIYAGSGSTWYASWAKGRFTISKTSTTVDLKMTSLTTEDTATYFCARDFLGVNSIWGPGTLVTISS
VL: B2 VL with R30S, G40D, Y48H, S65N, N95S, S96N, Y97F, Q98H, Y99F, S111G
notes: Fc-silenced (L234A/L235A/P329G) IgG1, lambda; Alexa Fluor 647-labeled in single-step flow cytometry; Cluster C-97
binding result (SLAMF7): no binding (tested: 150 ng IgG1 per well)

B8: HW-97 chimeric rabbit-human IgG1 LA/LA/PG (antibody, V domains shown)
VH: QKQLVESGGRLVTPGTPLTLTCTVTGIDLSSHGMSWVRQAPGKGLEWIGVIYPSGSTWYASWARGRFTISKTSTTVDLKMTSLTTEDTATHFCARGDVGGADNNIWGPGTLVTVSS
VL: B2 VL with N13D, D25E, R30S, N95S, S111G
notes: Fc-silenced (L234A/L235A/P329G) IgG1, lambda; Alexa Fluor 647-labeled in single-step flow cytometry; Prototype of cluster C-97
binding result (SLAMF7): no binding (tested: 150 ng IgG1 per well)

B9: HW-113 chimeric rabbit-human IgG1 LA/LA/PG (antibody, V domains shown)
VH: QKQLVESGGGLVQPGGSLTLTCTVSGFSLNKYYMGWFRQAPGKGLEWIGVISRSGDTYYSSWAKGRFTISKASTTVDLRITSPTTEDTATYFCARDASSPGFHGDRLDLWGQGTLVTVSS
VL: B2 VL with R30S, S93I, N95S, S96N, Q98L, Y99W, S111G
notes: Fc-silenced (L234A/L235A/P329G) IgG1, lambda; Alexa Fluor 647-labeled in single-step flow cytometry
binding result (SLAMF7): no binding (tested: 150 ng IgG1 per well)

Second part, led by results:

antibody-bound positive cells (%) (PTPRG on U266 cells): 64.5%
mAb binding (MFI) [1]: 8320
Cells stained (%) [2]: 97.2%
B1: HW-42 chimeric rabbit-human IgG1 LA/LA/PG (antibody, V domains shown)
VH: QSVKESEGGLFKPADTLTLTCTVSGFSLSSNEISWVRQAPGEGLEYIGIIDTGGRAYYAVWARSRSTITRNTNLNTVTLKMTSLTAADTATYFCARGGVDTEWYAFSSWGPGTLVTVPS
VL: B2 VL with Y48F, N68D, N95S, S96N, S111G
notes: as for B5
binding result (SLAMF7): no binding (tested: 150 ng IgG1 per well)

antibody-bound positive cells (%) (PTPRG on U266 cells): 76%
mAb binding (MFI) [1]: 12300
Cells stained (%) [2]: 98.9%
B3: HW-70 chimeric rabbit-human IgG1 LA/LA/PG (antibody, V domains shown)
VH: QSLEESGGRLVTPGTPLTLTCTVSGFSLSSNAMSWVRQAPGKGLEWIGTIDGYGYTYYASWAKGRFTVSKTSTTVDLKITSPTTEDTATYFCAREIYLGSNFWGPGTLVTISS
VL: B2 VL with S90A, N95S, Y99F, S111G
notes: as for B5
binding result (SLAMF7): no binding (tested: 150 ng IgG1 per well)

antibody-bound positive cells (%) (PTPRG on U266 cells): 69.6%
mAb binding (MFI) [1]: 7560
Cells stained (%) [2]: 95.7%
B4: HW-25 chimeric rabbit-human IgG1 LA/LA/PG (antibody, V domains shown)
VH: QSLEESGGRLVTPGTPLTLTCTVSGFSLSSYAMGWVRQAPGKGLEWIGIIDSRGSTYYATWAKGRFTISKTSTTVDLKITSPTTEDTATYFCAREDSYYYDSFNLWGPGTLVTVSS
VL: B2 VL with N95S, Y99C, S111G
notes: as for B5
binding result (SLAMF7): no binding (tested: 150 ng IgG1 per well)

Cells stained (%) [3]: 98.6%
mAb binding (MFI) [4]: 41900
Cells stained (%) [5]: 98.3%
Cells stained (%) [6]: 99.4%
Cells stained (%) [7]: 98.5%
B7: HW-28 chimeric rabbit-human IgG1 LA/LA/PG (antibody, V domains shown)
VH: QKQLVESGGRLVTPGTPLTLTCTASGFSLSSNAMSWVRQAPGEGLQWIGTISSGGSTYYASWAKGRFTISKTSTTVTLKMTSLTTEDTATYFCARGADLHRLWGPGTLVTVSS
VL: B2 VL with A24G, D25K, T26P, R30S, Y31F, L46V, N95S, S111G
notes: Fc-silenced (L234A/L235A/P329G) IgG1, lambda; Alexa Fluor 647-labeled in single-step flow cytometry; Cluster C-45

Cells stained (%) [3]: 99.8%
mAb binding (MFI) [4]: 479000
Cells stained (%) [5]: 99.9%
Cells stained (%) [6]: 99.9%
Cells stained (%) [7]: 99.7%
B10: HW-56 chimeric rabbit-human IgG1 LA/LA/PG (antibody, V domains shown)
VH: QSVKESEGGLFKPTDTLTLTCTASGFTVSTNAVTWVRQAPGNGLEYIGTIGRSGSAYFASWAKRRSTLTRDINLNTVTLKMTSLTAADTATYFCVRGSPGYRTAISIWGPGTLVTISS
VL: AVMTQTPSSTSAAVEGTVTINCQASQSISNRLSWFQQKPGQPPKLLIYQASTLASGVPSRFKGSGSGTEFTLTISGVQREDAATYYCLGSYSSSDASFGGGTKLEIKR
notes: Fc-silenced (L234A/L235A/P329G) IgG1, kappa; Alexa Fluor 647-labeled in single-step flow cytometry; Cluster C-45

mAb binding (MFI) [1]: 595
Cells stained (%) [2]: 1.86%
B11: TH9-0022 (antibody, human IgG1, kappa, L234A L235A, V domains shown)
VH: QSLEESGGRLVTPGTPLTLTCTVSGFSLSSYAMNWVRQAPGKGLEWIGIINSYGSTYYASWAKGRFTISKTSTTVDLKITSPTTEDTATYFCARVTYDSYGYGYAPYGMDLWGPGTLVTVSS
VL: LVMTQTPSSTSNAVGGTVTIKCQASQSIGNVLAWYQQKPGQPPKLLIYAASTLASGVPSRVGGSRSGTEYTLTISGVQREDAATYYCLGSDSDSDIAFGGGTELEILR
notes: also called TH9-022; negative control
binding result (SLAMF7): no binding (tested: 150 ng IgG1 per well)

antibody-bound positive cells (%) (PTPRG on U266 cells): 6.5%
B12: TH9-0022 (antibody, human IgG1, kappa, L234A L235A, V domains shown)
VH: B11 VH
VL: B11 VL
notes: also called TH9-022; negative control IgG1
